Source: US20250152742A1, “COMPOSITIONS AND METHODS FOR NEUROLOGICAL DISEASES” (Trames Bio, Inc., priority 2022, published 2025)

Test system: engineered chimeric receptor SEQ ID NO: 33 and its mutants (human α7-nAChR ligand binding domain / human GlyRα1 ion pore domain) in Lenti-X 293T cells
Assay: YFP fluorescence quenching anion reporter plate reader assay (percent quench, EC50)
Format: cell-based
Conditions: for YFP fluorescence quenching using CNL001 (percent quench): receptor named in row
How it was run: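 Lenti-X 293T cells co-expressing an anion-quenchable YFP were transiently transfected with receptor DNA, then ligand was added in NaI-substituted buffer (pH 7.2) after 30 min at 37 °C. Fluorescence was read about 2 min; percent quench = mean of last 10 s over 15 s pre-ligand baseline.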

B1: CODA806: engineered receptor: Y115D, L131Q in SEQ ID NO: 33 (Chemogenic receptor-11) (protein)
chain: MRCSPGGVWLALAASLLHVSLQGEFQRKLYKELVKNYNPLERPVANDSQPLTVYFSLSLLQIMDVDEKNQVLTTNIWLQMSWTDHYLQWNVSEYPGVKTVRFPDGQIWKPDILLDNSADERFDATFHTNVQVNSSGHCQYLPPGIFKSSCPMDLKNFPMDVQTCKLKFGSWSYGGWSLDLQMQEADISGYIPNGEWDLVGIPGKRSERFYECCKEPYPDVTFTVTMRRRMGYYLIQMYIPSLLIVILSWISFWINMDAAPARVGLGITTVLTMTTQSSGSRASLPKVSYVKAIDIWMAVCLLFVFSALLEYAAVNFVSRQHKELLRFRRKRRHHKSPMLNLFQEDEAGEGRFNFSAYGMGPACLQAKDGISVKGANNSNTTNPPPAPSKSPEEMRKLFIQRAKKIDKISRIGFPMAFLIFNMFYWIIYKIVRREDVHNQ
modifications: synthetic sequence of chimeric LGIC
YFP fluorescence quenching using CNL001 (percent quench) (1 nM CNL001, first column so headed): 6.587% | YFP fluorescence quenching using CNL001 (percent quench) (1 nM CNL001, second column so headed): −5.179% | YFP fluorescence quenching using TC-5619/Bradanicline (percent quench) (1 nM brd (TC-5619/Bradanicline)): 0.92% | YFP fluorescence quenching using TC-5619/Bradanicline (percent quench) (3 nM brd (TC-5619/Bradanicline)): −4.65% | YFP fluorescence quenching using CNL001 (percent quench) (10 nM CNL001, first column so headed): −2.366% | YFP fluorescence quenching using CNL001 (percent quench) (10 nM CNL001, second column so headed): −1.272% | YFP fluorescence quenching using TC-5619/Bradanicline (percent quench) (10 nM brd (TC-5619/Bradanicline)): 0.38% | YFP fluorescence quenching using TC-5619/Bradanicline (percent quench) (30 nM brd (TC-5619/Bradanicline)): −8.96% | YFP fluorescence quenching using CNL001 (percent quench) (50 nM CNL001, first column so headed): 2.763% | YFP fluorescence quenching using CNL001 (percent quench) (50 nM CNL001, second column so headed): 1.995% | YFP fluorescence quenching using ABT-126 (percent quench) (50 nM abt (ABT-126)): −1.81% | YFP fluorescence quenching using CNL001 (percent quench) (100 nM CNL001, first column so headed): 3.091% | YFP fluorescence quenching using CNL001 (percent quench) (100 nM CNL001, second column so headed): 1.45% | YFP fluorescence quenching (percent quench) (100 nM CNL002): −10.03% | YFP fluorescence quenching using ABT-126 (percent quench) (100 nM abt (ABT-126)): −2.61% | YFP fluorescence quenching using AZD-0328 (percent quench) (100 nM azd0328): 12.15% | YFP fluorescence quenching using TC-5619/Bradanicline (percent quench) (100 nM brd (TC-5619/Bradanicline)): 12.18% | YFP fluorescence quenching using ABT-126 (percent quench) (300 nM abt (ABT-126)): −3.78% | YFP fluorescence quenching using AZD-0328 (percent quench) (300 nM azd0328): 30.92% | YFP fluorescence quenching using TC-5619/Bradanicline (percent quench) (300 nM brd (TC-5619/Bradanicline)): −0.3% | YFP fluorescence quenching using CNL001 (percent quench) (1 uM CNL001, first column so headed): 7.331% | YFP fluorescence quenching using CNL001 (percent quench) (1 uM CNL001, second column so headed): 9.103% | YFP fluorescence quenching (percent quench) (1 uM CNL002): −3.33% | YFP fluorescence quenching using ABT-126 (percent quench) (1 uM abt (ABT-126)): −2.6% | YFP fluorescence quenching using TC-5619/Bradanicline (percent quench) (1 uM brd (TC-5619/Bradanicline)): 45.47% | YFP fluorescence quenching (percent quench) (10 uM ach (acetylcholine)): 9.47% | YFP fluorescence quenching (percent quench) (30 uM CNL002): 6.96% | YFP fluorescence quenching using AZD-0328 (percent quench) (30 uM azd0328): 68.65% | YFP fluorescence quenching (percent quench) (100 uM ach (acetylcholine)): 6.12% | YFP fluorescence quenching (percent quench) (1 mM ach (acetylcholine)): −1.56% | YFP fluorescence quenching (percent quench) (3 mM ach (acetylcholine)): 17.57% | YFP fluorescence quenching using Facinicline, 30 nM fac (ligand Facinicline 30 nM): 41.32 | YFP fluorescence quenching using Facinicline, 100 nM fac (ligand Facinicline 100 nM): 59.51 | YFP fluorescence quenching using Facinicline, 300 nM fac (ligand Facinicline 300 nM): 74.86 | YFP fluorescence quenching using Facinicline, 10 uM fac (ligand Facinicline 10 uM): 78.53 | YFP fluorescence quenching using Facinicline, 30 uM fac (ligand Facinicline 30 uM): 84.45 | YFP fluorescence quenching using TC-6987, 1 uM tc6987 (ligand TC-6987 1 uM): 38.83 | YFP fluorescence quenching using TC-6987, 10 uM tc6987 (ligand TC-6987 10 uM): 31.59 | YFP fluorescence quenching using TC-6987, 500 uM tc6987 (ligand TC-6987 500 uM): 29.83
